Literature values, collected in publication PMC7617445.

Target: IL-18 (Homo sapiens) (UniProt Q14116)
Sequence (Q14116 37-193): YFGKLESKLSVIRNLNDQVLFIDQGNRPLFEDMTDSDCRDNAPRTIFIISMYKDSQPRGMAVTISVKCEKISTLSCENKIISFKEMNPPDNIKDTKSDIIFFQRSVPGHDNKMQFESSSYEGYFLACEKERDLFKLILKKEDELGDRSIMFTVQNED

IL-18BP, sequence (O95998 31-194): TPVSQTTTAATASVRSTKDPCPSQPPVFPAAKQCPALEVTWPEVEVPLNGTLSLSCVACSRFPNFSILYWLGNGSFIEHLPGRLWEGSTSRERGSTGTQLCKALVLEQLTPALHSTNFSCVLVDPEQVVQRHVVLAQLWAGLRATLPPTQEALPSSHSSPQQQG

Substance: IL-18BP (from UniProt O95998)
- Kd: 0.1 nM
